Molecular target: plasminogen
Sequence (P00747 20-810): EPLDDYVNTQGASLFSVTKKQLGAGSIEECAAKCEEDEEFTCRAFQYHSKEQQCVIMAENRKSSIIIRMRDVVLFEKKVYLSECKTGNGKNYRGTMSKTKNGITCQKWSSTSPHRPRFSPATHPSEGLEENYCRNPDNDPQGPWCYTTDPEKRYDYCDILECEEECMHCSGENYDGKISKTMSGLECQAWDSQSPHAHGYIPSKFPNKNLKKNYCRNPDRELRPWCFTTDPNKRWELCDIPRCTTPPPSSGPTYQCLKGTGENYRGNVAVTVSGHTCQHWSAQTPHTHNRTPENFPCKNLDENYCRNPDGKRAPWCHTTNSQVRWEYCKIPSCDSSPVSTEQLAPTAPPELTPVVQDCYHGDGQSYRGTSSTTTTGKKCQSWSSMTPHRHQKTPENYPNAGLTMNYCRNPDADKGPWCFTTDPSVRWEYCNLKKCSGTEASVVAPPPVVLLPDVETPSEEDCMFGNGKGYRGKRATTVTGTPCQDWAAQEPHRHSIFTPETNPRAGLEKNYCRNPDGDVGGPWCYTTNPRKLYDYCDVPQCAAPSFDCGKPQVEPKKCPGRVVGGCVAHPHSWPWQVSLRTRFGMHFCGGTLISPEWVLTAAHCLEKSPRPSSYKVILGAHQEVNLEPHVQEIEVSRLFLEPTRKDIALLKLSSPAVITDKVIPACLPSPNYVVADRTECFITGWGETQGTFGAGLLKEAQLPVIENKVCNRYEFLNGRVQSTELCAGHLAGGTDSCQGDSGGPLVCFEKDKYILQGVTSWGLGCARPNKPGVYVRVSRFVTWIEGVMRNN

B1: recombinant streptokinase from Streptococcus equisimilis (ATCC 9542) (protein)
chain: IAGPEWLLDRPSVNNSQLVVSVAGTVEGTNQDISLKFFEIDLTSRPAHGGKTEQGLSPKSKPFATDSGAMSHKLEKADLLKAIQEQLIANVHSNDDYFEVIDFASDATITDRNGKVYFADKDGSVTLPTQPVQEFLLSGHVRVRPYKEKPIQNQAKSVDVEYTVQFTPLNPDDDFRPGLKDTKLLKTLAIGDTITSQELLAQAQSILNKNHPGYTIYERDSSIVTHDNDIFRTILPMDQEFTYRVKNREQAYRINKKSGLNEEINNTDLISEKYYVLKKGEKPYDPFDRSHLKLFTIKYVDVDTNELLKSEQLLTASERNLDFRDLYDPRDKAKLLYNNLDAFGIMDYTLTGKVEDNHDDTNRIITVYMGKRPEGENASYHLAYDKDRYTEEEREVYSYLRYTGTPIPDNPNDK
- activity in two-stage plasminogen activation assay (plasmin assayed with H-D-Val-Leu-Lys-p-nitroanilide, A405): 97,500+/-2500 IU/mg protein

Reference: US7105327
